{"source": "patent US20150141617A1", "about": "“PRODUCTION AND PURIFICATION OF ACTIVE EUKARYOTIC FORMYLGLYCINEGENERATING ENZYME (FGE) VARIANTS” (Universität Bielefeld, priority 2013, published 2015)", "molecules": {"B1": {"name": "FGE: human wild type full length formylglycine generating enzyme with RYSR furin cleavage motif, SEQ ID NO:2 (protein)", "chain": "ADEFSQEAGTGAGAGSLAGSCGCGTPQRPGAHGSSAAAHRYSREANAPGPVPGERQLAHSKMVPIPAGVFTMGTDDPQIKQDGEAPARRVTIDAFYMDAYEVSNTEFEKFVNSTGYLTEAEKFGDSFVFEGMLSEQVKTNIQQAVAAAPWWLPVKGANWRHPEGPDSTILHRPDHPVLHVSWNDAVAYCTWAGKRLPTEAEWEYSCRGGLHNRLFPWGNKLQPKGQHYANIWQGEFPVTNTGEDGFQGTAPVDAFPPNGYGLYNIVGNAWEWTSDWWTVHHSVEETLNPKGPPSGKDRVKKGGSYMCHRSYCYRYRCAARSQNTPDSSASNLGFRCAADRLPTMDSGRGSHHHHHHH", "modifications": "cloned matured acitve full length FGE with 6x His tag on C-terminus"}}, "key": {"steroid sulfatase (STS)": {"tested_on": "steroid sulfatase (STS)", "experiment": "Steroid sulfatase (STS) activity assay after co-expression with FGE in MSDi Tet-On cells", "assay_type": "cell-based, human", "conditions": "vs STS expressed alone; doxycycline induction", "description": "Activity assays of STS were performed as described earlier (15, 23). For western blot analysis, polyclonal antisera against FGE and steroid sulfatase were used as primary antibodies. Horseradish peroxidase-conjugated goat anti-rabbit antibody was used as secondary antibodies. Signals of steroid sulfatase are given as relative amounts, i.e. related to signal intensities detected in cells expressing steroid sulfatase only. Relative specific sulfatase activities were calculated, i.e. catalytic activity divided by the western blot signal (arbitrary units) and referred to that of cells expressing the sulfatase only (relative specific sulfatase activity=1). Absolute values for this reference are given in the legends.\nUsing this method the inventors examined whether the RYSR motif is required for the activation of sulfatases. cDNAs encoding steroid sulfatase (STS) alone or co-transfected along with cDNAs encoding RYSR-motif alanine variants of FGE in immortalized MSD Tet-On cells were transfected (FIG. 9C). Upon doxycycline induction, STS was barely active when expressed alone, whereas co-expression with FGE-wt increased the activity of STS approx. 50-fold, as observed previously (12)."}, "[1]": {"molecular_target": "T1, recombinant furin (rFurin) (Homo sapiens, UniProt P09958)", "T1 construct": "purchased NEB", "T1 sequence (P09958 108-794)": "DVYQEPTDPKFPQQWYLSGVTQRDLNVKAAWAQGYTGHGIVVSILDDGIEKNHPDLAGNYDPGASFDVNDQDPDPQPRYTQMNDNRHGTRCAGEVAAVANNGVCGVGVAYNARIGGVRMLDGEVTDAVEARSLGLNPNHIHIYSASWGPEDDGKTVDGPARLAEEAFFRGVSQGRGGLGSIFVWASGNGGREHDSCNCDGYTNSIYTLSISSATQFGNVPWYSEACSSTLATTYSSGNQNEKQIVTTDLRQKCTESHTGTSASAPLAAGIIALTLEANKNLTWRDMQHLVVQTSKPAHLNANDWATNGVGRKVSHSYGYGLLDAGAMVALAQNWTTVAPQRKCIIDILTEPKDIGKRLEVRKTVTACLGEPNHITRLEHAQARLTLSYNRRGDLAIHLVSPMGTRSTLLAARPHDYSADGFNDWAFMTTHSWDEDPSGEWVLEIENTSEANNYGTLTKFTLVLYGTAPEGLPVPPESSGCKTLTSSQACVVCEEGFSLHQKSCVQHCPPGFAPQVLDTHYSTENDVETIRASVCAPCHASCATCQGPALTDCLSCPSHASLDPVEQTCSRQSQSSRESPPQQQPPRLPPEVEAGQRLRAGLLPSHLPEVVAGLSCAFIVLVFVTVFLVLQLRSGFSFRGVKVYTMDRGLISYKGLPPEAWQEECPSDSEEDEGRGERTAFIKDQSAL", "experiment": "In vitro furin cleavage assay", "assay_type": "biochemical", "description": "CHO-FD11 cells stably expressing FGE-His6 or HT1080 cells were grown for 24 h, and cells and medium were harvested. For treatment with furin in vitro cell pellets were resuspended in HEPES pH 7.5 buffer containing 1 mM CaCl2 and 0.5% Triton X-100 and lysed in the absence of protease inhibitors by sonication on ice. Appropriate amounts of cell lysate and medium were incubated for 3 h at 25° C. with 4 units of furin (NEB) with or without 25 μM decanoyl-RVKR-CMK (Alexis biochemicals) as indicated in the figures. For in vivo treatment, HT1080 Tet-On cells were transiently transfected with pBI-FGE-HA and 4 h post-transfection, the medium was replenished with medium containing 20 ng/mL doxycycline and various concentrations of decanoyl-RVKR-CMK or only DMSO as a carrier control. The cells and medium were collected after 16 h of induction/treatment for further analysis. The samples were boiled in Laemmli buffer and analyzed by SDS-PAGE and western blotting with FGE antiserum.\nIn mammals, the proproteinconvertase family comprises nine enzymes that differ in their substrate specificity and tissue-specific expression and/or subcellular localization (17). Furin is the best characterized mammalian PC with a ubiquitous tissue distribution and it is the major convertase in the secretory pathway. To analyze the role of furin in the processing of FGE the inventors expressed FGE in cells that are deficient for furin. […] When cell homogenate and medium from CHO-FD11 cells stably expressing FGE-His were treated with commercially available recombinant furin (rFurin), almost half the amount of FGE was processed, as observed for both cells and medium (FIG. 12D). Using this in vitro furin cleavage assay, the inventors also examined whether endogenous intracellular FGE is susceptible to furin processing. Indeed, rFurin readily converted almost 90% of endogenous fl-FGE from untransfected HT1080 cells to the truncated form (FIG. 12E).\nAlthough FGE is an ER resident protein, it lacks a canonical ER-retention motif. […] In this study, using the in vitro furin cleavage assay, the inventors assessed furin-mediated processing of the FGE-ERp44 covalent complex (FIG. 8). Homogenates, pre-treated with NEM (to prevent post-lysis disulfide shuffling), from HT1080 cells expressing either FGE alone or FGE plus myc-ERp44 together from a bi-directional promoter were incubated with rFurin and analyzed by SDS-PAGE under non-reducing conditions. Upon overexpression, intracellular FGE via its N-terminal cysteines (C50 and C52) forms covalently cross-bridged homodimers (FIG. 15, lane 1 and 2) and, additionally, FGE-ERp44 heterodimers when co-expressed with ERp44 (FIG. 15, lane 4 and 6) as previously observed (13). Removal of the N-terminus by furin cleavage should lead to a disappearance of the homo-/hetero-dimeric FGE forms, which serves as an indicator for accessibility of the furin cleavage motif in FGE."}, "furin": {"molecular_target": "furin (Homo sapiens, UniProt P09958)", "sequence (P09958 108-794)": "as above", "experiment": "FGE processing in CHO-FD11 cells co-expressing furin", "assay_type": "cell-based", "design": "expressed in transfected cells; host or cells: CHO-FD11 / CHO-FD11 Tet-On (furin-deficient CHO) cells, transient co-transfection with FGE", "from_the_text": "The resulting constructs were verified by full-length sequencing of the coding region to exclude any PCR prone errors. Plasmids for expression of the PCs encoding human furin (Gene ID 5045), human PACE4 (=PCSK6, Gene ID 5046), murine […] (=Pcsk5, Gene ID 18552) and rat PC7 (=Pcsk7, Gene ID 29606) were kindly provided by Abdel-Majid Khatib (18). Note that the PC cDNAs were encoded as pIRES constructs coding also for enhanced green fluorescence protein (EGFP) such that EGFP expression levels serve as a measure of the expression levels of PCs.\n3 μg of pSB-FGE-RGS-His6 vector was used for single transfections of HT1080, HeLa, HEK 293, BHK and CHO cells. Conditioned medium was collected after 24 h and centrifuged (500×g, 5 min) Cells were washed once with PBS, treated with trypsin (Lonza) and pelleted by 250×g to remove the medium. Cell pellets were resuspended in PBS (pH 7.4) containing protease inhibitor (PI) cocktail (Sigma) and lysed by sonication 3×10 s on ice. […]\nIn mammals, the proproteinconvertase family comprises nine enzymes that differ in their substrate specificity and tissue-specific expression and/or subcellular localization (17). […] Indeed, rFurin readily converted almost 90% of endogenous fl-FGE from untransfected HT1080 cells to the truncated form (FIG. 12E). […]"}}, "data": [{"molecule": "B1", "values": [{"measurement": "increase of STS activity on co-expression", "setting": "steroid sulfatase (STS)", "result": "approx. 50 fold"}, {"measurement": "accessibility of the furin-cleavage site in FGE monomer and homodimer", "setting": "[1]; NEM-treated HT1080 Tet-On lysates", "result": "accessible to furin"}, {"measurement": "furin cleavage of FGE in complex with ERp44", "setting": "[1]; NEM-treated HT1080 Tet-On lysates co-expressing myc-ERp44", "result": "protected from furin cleavage"}, {"measurement": "amount of FGE processed by rFurin", "setting": "[1]; cell homogenate and medium from CHO-FD11 cells, 3 h 25° C.", "result": "almost half"}, {"measurement": "endogenous fl-FGE converted to the truncated form by rFurin", "setting": "[1]; lysate of untransfected HT1080 cells", "result": "~90", "unit": "%"}, {"measurement": "Δ72-FGE in secretions", "setting": "furin; coexpression of furin, CHO-FD11 Tet-On", "result": "~100", "unit": "%"}, {"measurement": "form of secreted FGE", "setting": "furin; furin replenished by exogenous expression", "result": "all secreted FGE was in the truncated form"}]}]}
